From publication PMC7990499, “eIF2B conformation and assembly state regulate the integrated stress response” (eLife, 2021)

What was measured:
[1] = molecular target: eIF2B(αβδγε)2 decamer (human) (UniProt Q14232)
[2] = molecular target: eIF2B(αβδγε)2 decamer (human) (UniProt Q14232); experiment: fluorescence polarisation; displacement of FAM-ISRIB (2.5 nM) from 100 nM eIF2B(αβδγε)2 by titrated eIF2, eIF2-P, eIF2α or eIF2α-P; 30 min at 22°C; 20 mM HEPES-KOH pH 7.5, 100 mM KCl, 5 mM MgCl2, 1 mM TCEP; also timecourses with PKR or λ phosphatase at 5.6 μM eIF2α/eIF2α-P

| t1/2 of BODIPY-FL-GDP exchange on eIF2 by 10 nM eIF2B(αβδγε)2 (GEF activity) at 0, 50, 100 and 250 nM eIF2-P (control 1.6 min) [1] [min] | IC50 [2] [µM] | t1/2 of BODIPY-FL-GDP exchange on eIF2 by 10 nM eIF2B(αβδγε)2 (GEF activity) at 0, 0.2, 1 and 2 μM eIF2α-P (control 2.4 min) [1] [min] | Substance |
| --- | --- | --- | --- |
| 7.2 | 0.21 | – | phosphorylated heterotrimeric human eIF2 (eIF2-P) (from UniProt P05198 1-315; P20042 1-333; P41091 1-472) (complex) |
| – | 4 | 6.7 | human phosphorylated eIF2α (eIF2α-P) (from UniProt P05198 1-315) (natural protein) |
